Changes are numbered by the printed parent chain. In names and notes the source's numbering stands.
T1: CD20 (UniProt P11836 1-297, limits assumed)
T1 sequence (looked up): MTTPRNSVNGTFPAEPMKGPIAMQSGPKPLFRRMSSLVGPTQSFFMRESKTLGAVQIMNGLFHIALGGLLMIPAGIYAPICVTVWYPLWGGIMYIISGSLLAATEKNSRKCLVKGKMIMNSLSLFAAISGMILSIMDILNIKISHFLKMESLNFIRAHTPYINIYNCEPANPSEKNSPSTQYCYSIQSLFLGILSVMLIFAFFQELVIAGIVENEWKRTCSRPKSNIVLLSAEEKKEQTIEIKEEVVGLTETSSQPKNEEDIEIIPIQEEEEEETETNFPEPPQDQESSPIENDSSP

B1: RTX-IgM V15J (wt) (bispecific antibody)
VH: QVQLQQPGAELVKPGASVKMSCKASGYTFTSYNMHWVKQTPGRGLEWIGAIYPGNGDTSYNQKFKGKATLTADKSSSTAYMQLSSLTSEDSAVYYCARSTYYGGDWYFNVWGAGTTVTVSA
VL: QIVLSQSPAILSASPGEKVTMTCRASSSVSYIHWFQQKPGSSPKPWIYATSNLASGVPVRFSGSGSGTSYSLTISRVEAEDAATYYCQQWTSNPPTFGGGTKLEIKR
chain: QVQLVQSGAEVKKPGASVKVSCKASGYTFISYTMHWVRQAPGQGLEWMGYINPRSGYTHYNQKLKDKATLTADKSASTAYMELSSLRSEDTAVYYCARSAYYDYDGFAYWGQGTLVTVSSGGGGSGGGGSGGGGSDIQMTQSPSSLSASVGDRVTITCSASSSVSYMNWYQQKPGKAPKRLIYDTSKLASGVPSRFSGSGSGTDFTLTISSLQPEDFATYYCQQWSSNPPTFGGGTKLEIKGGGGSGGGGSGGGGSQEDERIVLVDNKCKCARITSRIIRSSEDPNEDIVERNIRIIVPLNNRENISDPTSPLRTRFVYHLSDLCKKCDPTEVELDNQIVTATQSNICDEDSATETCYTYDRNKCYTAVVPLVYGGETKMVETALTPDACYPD
B2: RTX-IgM V15J (N93E) (bispecific antibody)
VH: B1 VH
VL: B1 VL with N93E
chain: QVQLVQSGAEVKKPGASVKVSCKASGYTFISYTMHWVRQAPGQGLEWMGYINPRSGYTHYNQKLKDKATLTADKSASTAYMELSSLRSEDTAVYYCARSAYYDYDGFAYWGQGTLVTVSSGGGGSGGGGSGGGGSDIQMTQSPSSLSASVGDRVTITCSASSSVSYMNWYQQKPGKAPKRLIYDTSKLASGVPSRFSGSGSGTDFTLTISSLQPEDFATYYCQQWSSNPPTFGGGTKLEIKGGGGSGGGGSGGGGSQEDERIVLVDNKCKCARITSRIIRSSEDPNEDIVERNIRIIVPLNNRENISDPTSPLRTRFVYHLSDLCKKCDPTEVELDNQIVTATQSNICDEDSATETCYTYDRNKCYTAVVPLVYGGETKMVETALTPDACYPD
B3: RTX-IgM V15J (N93D) (bispecific antibody)
VH: B1 VH
VL: B1 VL with N93D
chain: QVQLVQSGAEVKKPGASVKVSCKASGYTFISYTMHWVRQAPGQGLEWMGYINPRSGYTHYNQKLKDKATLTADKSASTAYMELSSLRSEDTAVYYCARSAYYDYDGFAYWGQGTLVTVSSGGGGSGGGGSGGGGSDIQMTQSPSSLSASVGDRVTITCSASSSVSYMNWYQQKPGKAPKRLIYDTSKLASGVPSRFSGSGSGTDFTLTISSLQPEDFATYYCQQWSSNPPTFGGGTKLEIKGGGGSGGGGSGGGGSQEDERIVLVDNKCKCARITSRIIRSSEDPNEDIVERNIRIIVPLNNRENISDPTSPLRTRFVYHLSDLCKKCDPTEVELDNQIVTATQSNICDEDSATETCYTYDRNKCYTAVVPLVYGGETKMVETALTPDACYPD
B4: RTX-IgM + J N93A (antibody)
VH: B1 VH
VL: B1 VL with N93A
chain: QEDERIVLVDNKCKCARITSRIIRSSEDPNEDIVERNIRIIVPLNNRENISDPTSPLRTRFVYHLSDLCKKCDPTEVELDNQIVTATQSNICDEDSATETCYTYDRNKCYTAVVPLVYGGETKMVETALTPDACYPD
notes: Pentameric IgM with wild-type J-chain; IgM constant region of the construct not specified
B5: RTX-IgM + J N93R (antibody)
VH: B1 VH
VL: B1 VL with N93R
chain: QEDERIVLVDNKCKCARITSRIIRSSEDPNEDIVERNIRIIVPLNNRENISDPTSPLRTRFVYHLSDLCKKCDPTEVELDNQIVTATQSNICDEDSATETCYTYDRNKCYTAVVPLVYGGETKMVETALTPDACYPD
notes: as for B4
B6: RTX-IgM + J N93K (antibody)
VH: B1 VH
VL: B1 VL with N93K
chain: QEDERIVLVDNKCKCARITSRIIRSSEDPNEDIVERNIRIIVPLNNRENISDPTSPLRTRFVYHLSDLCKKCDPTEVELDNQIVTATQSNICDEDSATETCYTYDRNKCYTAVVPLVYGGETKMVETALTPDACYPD
notes: as for B4

What was measured:
CD20 [1] = target: T1, CD20; test: cell-based or functional assay
CD20 [2] = target: T1, CD20; test: flow cytometry on Ramos cells, anti-human kappa AF647 detection
Method: The cells were split every 2-3 days as necessary to maintain the cell density between 0.2-2.0×10⁶ cells/mL. […] The antibody cell mixtures were incubated for 30 minutes on ice in the dark. […] Fluorescent staining data was acquired on FACSCalibur using standard settings and analyzed with FloJo 10. Mean fluorescent intensity (MFI) values were imported into GraphPad Prism, and EC50 or KD values were calculated from the resulting curve fit.

Binder | TDCC on CA46 cells with CD8+ T cells, EC50 (CD20 [1]) [nM] | TDCC on Ramos cells with CD8+ T cells, % Max. (CD20 [1]) [%] | TDCC on Ramos cells with CD8+ T cells, EC50 (CD20 [1]) [nM] | TDCC on normal B cells with CD8+ T cells, EC50 (CD20 [1]) [nM] | EC50 (CD20 [2]) [nM]
B1 | 0.014 | 98 | 0.009 | 0.009 | 
B2 |  | 80 | 0.107 | 0.145 | 
B3 |  | 60 | 0.722 |  | 
B4 |  |  |  |  | 0.69
B5 |  |  |  |  | 0.52
B6 |  |  |  |  | 0.88

— patent publication US20220372142A1 (IGM BIOSCIENCES, published 2022)
